Consider one variant from IntAct's records for PubMed 9845372.

B1: Double-strand break repair protein MRE11 (Saccharomyces cerevisiae), P32829 (parent)
chain: MDYPDPDTIRILITTDNHVGYNENDPITGDDSWKTFHEVMMLAKNNNVDMVVQSGDLFHVNKPSKKSLYQVLKTLRLCCMGDKPCELELLSDPSQVFHYDEFTNVNYEDPNFNISIPVFGISGNHDDASGDSLLCPMDILHATGLINHFGKVIESDKIKVVPLLFQKGSTKLALYGLAAVRDERLFRTFKDGGVTFEVPTMREGEWFNLMCVHQNHTGHTNTAFLPEQFLPDFLDMVIWGHEHECIPNLVHNPIKNFDVLQPGSSVATSLCEAEAQPKYVFILDIKYGEAPKMTPIPLETIRTFKMKSISLQDVPHLRPHDKDATSKYLIEQVEEMIRDANEETKQKLADDGEGDMVAELPKPLIRLRVDYSAPSNTQSPIDYQVENPRRFSNRFVGRVANGNNVVQFYKKRSPVTRSKKSGINGTSISDRDVEKLFSESGGELEVQTLVNDLLNKMQLSLLPEVGLNEAVKKFVDKDEKTALKEFISHEISNEVGILSTNEEFLRTDDAEEMKALIKQVKRANSVRPTPPKENDETNFAFNGNGLDSFRSSNREVRTGSPDITQSHVDNESRITHISQAESSKPTSKPKRVRTATKKKIPAFSDSTVISDAENELGDNNDAQDDVDIDENDIIMVSTDEEDASYGLLNGRKTKTKTRPAASTKTASRRGKGRASRTPKTDILGSLLAKKRK
partner: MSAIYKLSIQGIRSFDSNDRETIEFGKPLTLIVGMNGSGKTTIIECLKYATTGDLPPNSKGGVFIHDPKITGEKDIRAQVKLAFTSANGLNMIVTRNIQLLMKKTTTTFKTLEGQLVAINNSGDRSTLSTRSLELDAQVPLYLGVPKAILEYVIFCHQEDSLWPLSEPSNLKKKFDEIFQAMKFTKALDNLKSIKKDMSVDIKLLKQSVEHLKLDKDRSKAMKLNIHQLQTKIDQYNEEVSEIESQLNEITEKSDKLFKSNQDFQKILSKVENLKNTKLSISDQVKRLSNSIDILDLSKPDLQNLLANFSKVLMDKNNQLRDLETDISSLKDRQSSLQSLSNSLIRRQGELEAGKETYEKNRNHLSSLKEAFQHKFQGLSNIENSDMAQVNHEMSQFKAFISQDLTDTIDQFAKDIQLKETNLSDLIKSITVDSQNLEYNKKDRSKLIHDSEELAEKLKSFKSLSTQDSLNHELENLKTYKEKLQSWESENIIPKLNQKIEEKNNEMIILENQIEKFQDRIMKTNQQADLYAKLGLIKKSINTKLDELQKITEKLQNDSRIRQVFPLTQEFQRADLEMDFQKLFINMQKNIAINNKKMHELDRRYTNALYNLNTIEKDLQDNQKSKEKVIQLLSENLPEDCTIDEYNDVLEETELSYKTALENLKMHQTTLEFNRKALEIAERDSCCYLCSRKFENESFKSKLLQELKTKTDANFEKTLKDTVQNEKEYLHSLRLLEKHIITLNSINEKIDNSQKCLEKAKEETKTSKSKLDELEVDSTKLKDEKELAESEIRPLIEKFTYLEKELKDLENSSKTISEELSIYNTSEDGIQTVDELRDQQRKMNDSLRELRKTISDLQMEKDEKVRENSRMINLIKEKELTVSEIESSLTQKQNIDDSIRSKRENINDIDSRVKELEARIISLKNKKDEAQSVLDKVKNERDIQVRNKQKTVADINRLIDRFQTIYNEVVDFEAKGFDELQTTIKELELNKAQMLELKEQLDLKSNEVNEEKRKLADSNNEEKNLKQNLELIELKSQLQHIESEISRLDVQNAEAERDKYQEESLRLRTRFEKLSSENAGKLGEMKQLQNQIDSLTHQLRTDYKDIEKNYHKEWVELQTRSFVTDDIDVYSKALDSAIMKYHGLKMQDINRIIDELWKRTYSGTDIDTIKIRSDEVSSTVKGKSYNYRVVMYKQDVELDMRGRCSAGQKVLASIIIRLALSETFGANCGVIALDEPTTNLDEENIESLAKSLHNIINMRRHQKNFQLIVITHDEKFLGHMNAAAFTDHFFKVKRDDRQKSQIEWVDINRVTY

Variants of B1 are the subject of the assay. The note with it: with rad50_yeast RAD50, P12753.
For H213Y;L225I, the “effect of a mutation on the interaction” value was “disrupting interaction”.
